Measurements taken from article PMC5595370.

Tests used:
[1] = target: HPV59 L1 C175S mutant after limited trypsin digestion (crystallized pentamer) (human papillomavirus type 59); assay: AUC
[2] = target: HPV59 L1 C175S mutant after limited trypsin digestion (crystallized pentamer) (human papillomavirus type 59); assay: crystal structure

HPV59 L1 C175S mutant after limited trypsin digestion (crystallized pentamer) (domain or fragment)
stoichiometry N [1]: 5
stoichiometry N [2]: 5
